Values belong to the binder of their own block, whether it stands above or below them.
Assays:
[1] = biological target: CD16A (FcgammaRIIIA) on primary human NK-cells (human) (UniProt P08637); experiment: cell-based or functional assay
[2] = biological target: CD16A (FcgammaRIIIA) on primary human NK-cells (human) (UniProt P08637); experiment: flow cytometry titration on primary human NK-cells, 37 C; detection with anti-His mAb, FITC goat anti-mouse IgG
[3] = biological target: CD16A (FcgammaRIIIA) on primary human NK-cells (human) (UniProt P08637); experiment: flow cytometry, titration on primary human NK-cells at 37 C, buffer; detection with anti-His mAb
[4] = biological target: T1, CD16A (FcgammaRIIIA) on primary human NK-cells (human, UniProt P08637 17-208); experiment: flow cytometry, titration on primary human NK-cells at 37 C, buffer; apparent affinity
T1 construct: The assays used primary human NK-cells
T1 sequence (P08637 17-208): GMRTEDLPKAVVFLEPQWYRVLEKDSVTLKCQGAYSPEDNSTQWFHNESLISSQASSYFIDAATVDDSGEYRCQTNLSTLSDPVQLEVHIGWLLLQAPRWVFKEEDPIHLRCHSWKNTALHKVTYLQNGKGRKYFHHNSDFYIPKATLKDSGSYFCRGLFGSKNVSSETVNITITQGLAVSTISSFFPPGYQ
Protocol: (§1) Method: Serial dilutions of anti-CD16A scFv are added to primary human NK-cells at 37° C. for 45 min followed by detection of antibody binding on ice.

[5] = biological target: T2, B-cell maturation antigen (BCMA) on myeloma cell lines (human, UniProt Q02223 1-184); experiment: flow cytometry titration on NCI-H929 cells; detection with CD16A-mFc.67/anti-human-FITC
T2 construct: whole, on cells; also called CD269; TNFRSF17
T2 sequence (looked up): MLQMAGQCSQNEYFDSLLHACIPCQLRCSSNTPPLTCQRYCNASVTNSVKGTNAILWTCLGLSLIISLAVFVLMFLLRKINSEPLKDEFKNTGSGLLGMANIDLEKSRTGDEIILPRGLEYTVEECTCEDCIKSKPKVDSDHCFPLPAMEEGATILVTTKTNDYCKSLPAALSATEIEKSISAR
Protocol: (§2) Antibody binding was quantified by detection with CD16A-mFc.67/anti-human-FITC and flow cytometry. control antibodies anti-BCMA (ANC3B1), anti-CD38 (HB7) and anti-CS1 (235614) were added at saturating concentrations and detected by anti-mouse-Fc-FITC (ctrl.)

[6] = biological target: T1, CD16A (FcgammaRIIIA) on primary human …; experiment: flow cytometry titration on primary human NK-cells, 37 C, in presence of 10 mg/mL polyclonal human IgG; detection with BCMA(1-54)-GCN4-His, anti-His mAb, FITC goat anti-mouse IgG
[7] = biological target: T1, CD16A (FcgammaRIIIA) on primary human …; experiment: flow cytometry titration on primary human NK-cells, 37 C; detection with BCMA(1-54)-GCN4-His, anti-His mAb, FITC goat anti-mouse IgG
Protocol: as §1

[8] = biological target: T2, B-cell maturation antigen (BCMA) on …; experiment: cell-based or functional assay
[9] = biological target: T1, CD16A (FcgammaRIIIA) on primary human …; experiment: flow cytometry titration on primary human NK-cells, 37 C, buffer without IgG; detection with BCMA(1-54)-GCN4-His, anti-His mAb, FITC goat anti-mouse IgG
[10] = biological target: T2, B-cell maturation antigen (BCMA) on …; experiment: flow cytometry, titration on MM.1S cells; detection with CD16A-mFc.67/anti-human-FITC
Protocol: as §2

[11] = biological target: T1, CD16A (FcgammaRIIIA) on primary human …; experiment: cell-based or functional assay
[12] = biological target: T2, B-cell maturation antigen (BCMA) on …; experiment: flow cytometry, titration on NCI-H929 cells; detection with CD16A-mFc.67/anti-human-FITC
Protocol: as §2

[13] = biological target: T1, CD16A (FcgammaRIIIA) on primary human …; experiment: flow cytometry, titration on primary human NK-cells at 37 C, buffer; apparent affinity; detection via BCMA(1-54)-GCN4-His/anti-His
[14] = biological target: T1, CD16A (FcgammaRIIIA) on primary human …; experiment: flow cytometry, titration on primary human NK-cells at 37 C in presence of 10 mg/mL polyclonal human IgG (competitor)
[15] = biological target: T1, CD16A (FcgammaRIIIA) on primary human …; experiment: flow cytometry on primary human NK-cells, with against without 10 mg/mL polyclonal human IgG
[16] = biological target: T2, B-cell maturation antigen (BCMA) on …; experiment: flow cytometry, titration on RPMI-8226 cells; detection with CD16A-mFc.67/anti-human-FITC
Protocol: as §2

[17] = biological target: T2, B-cell maturation antigen (BCMA) on …; experiment: flow cytometry titration on MM.1S cells; detection with CD16A-mFc.67/anti-human-FITC
Protocol: as §2

[18] = biological target: T2, B-cell maturation antigen (BCMA) on …; experiment: cell-based or functional assay; remark: listed apart in the source
[19] = biological target: T3, CS1 on myeloma cells (UniProt Q9NQ25 23-335, limits assumed); experiment: cell-based or functional assay
[20] = biological target: T3, CS1 on myeloma cells; experiment: flow cytometry, titration on MM.1S cells; detection with CD16A-mFc.67/anti-human-FITC
Protocol: as §2

[21] = biological target: T3, CS1 on myeloma cells; experiment: flow cytometry, titration on NCI-H929 cells; detection with CD16A-mFc.67/anti-human-FITC
Protocol: as §2

[22] = biological target: T3, CS1 on myeloma cells; experiment: cell-based or functional assay; remark: listed apart in the source

Sequence of CD16A (FcgammaRIIIA) on primary human NK-cells (human) (P08637 17-208): as the sequence (P08637 17-208) above

EC50 of antibody-induced NK-cell-NK-cell lysis (4 h calcein release) [1]: 0.659 nM
B1: Anti-CD16A diabody (protein, not shown: small tags and cut ends)
VL: SYVLTQPSSVSVAPGQTATISCGGHNIGSKNVHWYQQRPGQSPVLVIYQDNKRPSGIPERFSGSNSGNTATLTISGTQAMDEADYYCQVWDNYSVLFGGGTKLTVL
VH: QVQLVQSGAEVKKPGESLKVSCKASGYTFTSYYMHWVRQAPGQGLEWMGAIEPMYGSTSYAQKFQGRVTMTRDTSTSTVYMELSSLRSEDTAVYYCARGSAYYYDFADYWGQGTLVTVSS
modifications: diabody linker not stated

EC50 (read off the curve) [2]: 10 nM
Kd [3]: 12.2 nM
B2: Anti-CD16A scFv (scFv, V domains shown, part only)
VL: B1 VL
VH: B1 VH

Kd [4]: 1.2 nM
EC50 (read off the curve) [5]: ~20 nM
EC50 (read off the curve) [6]: ~4 nM
EC50 (read off the curve) [7]: ~1 nM
EC50 of NK-cell-mediated lysis of MM.1S cells (4 h calcein release) [8]: 0.0037 nM
EC50 of NK-cell-mediated lysis of NCI-H929 cells (4 h calcein release) [8]: 0.0091 nM
EC50 of NK-cell-mediated lysis of RPMI-8226 cells (4 h calcein release) [8]: 0.0623 nM
EC50 (read off the curve) [9]: ~1 nM
Kd [10]: 11.5 nM
EC50 of NK-cell-mediated lysis of BCMA+ NCI-H929 cells (4 h calcein release), 10 mg/mL polyclonal human IgG [11]: 0.0761 nM
EC50 of NK-cell-mediated lysis of BCMA+ NCI-H929 cells (4 h calcein release), buffer [11]: 0.0162 nM
Fold-loss in potency (EC50 with 10 mg/mL IgG against buffer) [11]: 4.7 fold
Kd [12]: 27.7 nM
Kd [13]: 1.2 nM
Kd [14]: 3.6 nM
fold-change (KD with 10 mg/mL IgG against KD in buffer) [15]: 3 fold
Kd [16]: 26.7 nM
EC50 (read off the curve) [17]: ~10 nM
EC50 of NK-cell-mediated lysis of primary myeloma cells from a pleural effusion (multiple myeloma; 4 h 51Cr release) [18]: 0.004 nM
EC50 of NK-cell-mediated lysis of primary myeloma cells from peripheral blood (plasma cell leukemia; 4 h 51Cr release) [18]: 0.0063 nM
B3: BCMA/CD16A-directed tandem diabody in variant 4 (bispecific antibody)
chain: QVQLVQSGAEVKTPGEPLKISCKGSGYSFTDSWIGWVRQMPGKGLEWMGIIYAGDSDARYSPSFQGQVTISADTSTSTVYLQWSSLKASDTAMYYCARNFGDHWGQGTLVTVSSGGSGGSGGSGGSSYVLTQPSSVSVAPGQTATISCGGHNIGSKNVHWYQQRPGQSPVLVIYQDNKRPSGIPERFSGSNSGNTATLTISGTQAMDEADYYCQVWDNYSVLFGGGTKLTVLGGSQVQLVQSGAEVKKPGESLKVSCKASGYTFTSYYMHWVRQAPGQGLEWMGAIEPMYGSTSYAQKFQGRVTMTRDTSTSTVYMELSSLRSEDTAVYYCARGSAYYYDFADYWGQGTLVTVSSGGSGGSGGSGGSSYELTQSPSVSVAPGQTARIFCGGDNIGSKNVHWYQQKPGQAPVLVIYRDSNRPSGIPERFSGANSENTATLTISRAQAGDEADYYCQVWDSRTYVFGTGTKLTVL
notes: also called tandem diabody variant 4; Tandem diabody (v4)

EC50 of NK-cell-mediated lysis of MM.1S cells (4 h calcein release) [19]: 0.153 nM
EC50 of NK-cell-mediated lysis of NCI-H929 cells (4 h calcein release) [19]: 0.394 nM
Kd [20]: 35.7 nM
Kd [21]: 36 nM
EC50 of NK-cell-mediated lysis of primary myeloma cells (multiple myeloma; 4 h 51Cr release) [22]: 0.145 nM
EC50 of NK-cell-mediated lysis of primary myeloma cells (plasma cell leukemia; 4 h 51Cr release) [22]: 0.0782 nM
B4: elotuzumab (antibody, V domains shown)
VH: EVQLVESGGGLVQPGGSLRLSCAASGFDFSRYWMSWVRQAPGKGLEWIGEINPDSSTINYAPSLKDKFIISRDNAKNSLYLQMNSLRAEDTAVYYCARPDGNYWYFDVWGQGTLVTVSS
VL: DIQMTQSPSSLSASVGDRVTITCKASQDVGIAVAWYQQKPGKVPKLLIYWASTRHTGVPDRFSGSGSGTDFTLTISSLQPEDVATYYCQQYSSYPYTFGQGTKVEIK

Source: patent US20220041717A1 (AFFIMED, published 2022)
